Data taken from US20070161078A1.

How the values were obtained:
[1] = biological target: MBP.NS1 H5N1B (ESEV) (influenza A H5N1) (UniProt Q6DP28); assay: G assay titration
[2] = biological target: MBP.NS1 H5N1B (ESEV) (influenza A H5N1) (UniProt Q6DP28); assay: direct binding assay titration

## INADL d8 (from UniProt Q8NI35 1431-1525)
[1]
  EC50: 1.8 µg/mL
[2]
  EC50: 6.1 µg/mL

## MAST2 d1 (from UniProt Q6P0Q8 1098-1197)
[1]
  EC50: 0.9 µg/mL

## NeDLG d1,2 (from UniProt Q92796 124-316)
[1]
  EC50: 0.2 µg/mL
[2]
  EC50: 0.8 µg/mL

## Magi3 d1 (from UniProt Q5TCQ9 18-106)
[1]
  EC50: 0.9 µg/mL
[2]
  EC50: 5 µg/mL
